These are literature values, as cited in US8747397B2, “Cryotreatment pellet” (CPSI Holdings LLC, priority 2009, dated 2014).

This data set deals with prostate cancer cell.

B1: TNF-Related Apoptosis-Inducing Ligand (protein, UniProt P50591 1-281, looked up)
Tumor necrosis factor ligand …: MAMMEVQGGPSLGQTCVLIVIFTVLLQSLCVAVTYVYFTNELKQMQDKYSKSGIACFLKEDDSYWDPNDEESMNSPCWQVKWQLRQLVRKMILRTSEETISTVQEKQQNISPLVRERGPQRVAAHITGTRGRSNTLSSPNSKNEKALGRKINSWESSRSGHSFLSNLHLRNGELVIHEKGFYYIYSQTYFRFQEEIKENTKNDKQMVQYIYKYTSYPDPILLMKSARNSCWSKDAEYGLYSIYQGGIFELKENDRIFVSVTNEHLIDMDHEASFFGAFLVG
notes: cytotoxic agent, apoptosis-inducing ligand applied in combination with freezing
For B1, the cell death entry (sub-lethal dose applied in vitro in combination with freezing) was “complete prostate cancer cell death occurs”. For the same molecule, the critical death temperature (sub-lethal dose in combination with freezing, reduced from −40° C. (freezing alone)) is −10 °C.
